Earlier results, collected in paper PMC10816394, “Radiosynthesis and Bioevaluation of ^99mTc-Labeled Isocyanide Ubiquicidin 29-41 Derivatives as Potential Agents for Bacterial Infection Imaging” (International Journal of Molecular Sciences, 2024).
No end group written: not given here.

Assays:
[1] = system: bacterial infection sites; parameters: method as in PMID 14960656, PMID 10774881, PMID 12900285, PMID 15093821, PMID 11337578; settings: literature values; cited from earlier work
[2] = in vivo; cited from earlier work

[^99mTc]Tc-UBI 29-41: directly ^99mTc-labeled UBI 29-41, reported bacterial infection tracer; structure speculated (TGRAKRRMQYNRR; also: directly 99mTc-labeled, no chelator, structure speculative; UniProt P62861 103-115, looked up, fragment)
target-to-nontarget ratio at bacterial infection sites [1]: 1.7–4.7
target-to-nontarget ratio at sterile inflammation sites [2]: 1.1–1.2
